Reference: US20090263900

Assays:
ZFN 2189-11 (synthetic) = test: cell_activity; details: pair with r2182-8; K562 cells, 50 bp HA linear donor 6.9 ug; targeted integration 2-9.4% over donors, 0% without ZFN
ZFN r2182-8 (synthetic) = test: cell_activity; details: pair with 2189-11; K562 cells, 50 bp HA linear donor 6.9 ug; targeted integration 2-9.4% over donors, 0% without ZFN

Row | Sequence | activity (ZFN 2189-11 (synthetic)) | activity (ZFN r2182-8 (synthetic))
1 | ACTAGGGACAGGATTG (double strand) [AAVS1 2189-11 target half-site] | 9.4 % TI | –
2 | CCCCACTGTGGGGTGG (double strand) [AAVS1 r2182-8 target half-site] | – | 9.4 % TI
